The target in experiment [1] is T1, purified recombinant LGR5 ectodomain-IgG-Fc fusion (human, UniProt O75473 22-561).
T1 construct: also called human LGR5-Fc; hLGR5-Fc; not shown: IgG Fc
T1 sequence: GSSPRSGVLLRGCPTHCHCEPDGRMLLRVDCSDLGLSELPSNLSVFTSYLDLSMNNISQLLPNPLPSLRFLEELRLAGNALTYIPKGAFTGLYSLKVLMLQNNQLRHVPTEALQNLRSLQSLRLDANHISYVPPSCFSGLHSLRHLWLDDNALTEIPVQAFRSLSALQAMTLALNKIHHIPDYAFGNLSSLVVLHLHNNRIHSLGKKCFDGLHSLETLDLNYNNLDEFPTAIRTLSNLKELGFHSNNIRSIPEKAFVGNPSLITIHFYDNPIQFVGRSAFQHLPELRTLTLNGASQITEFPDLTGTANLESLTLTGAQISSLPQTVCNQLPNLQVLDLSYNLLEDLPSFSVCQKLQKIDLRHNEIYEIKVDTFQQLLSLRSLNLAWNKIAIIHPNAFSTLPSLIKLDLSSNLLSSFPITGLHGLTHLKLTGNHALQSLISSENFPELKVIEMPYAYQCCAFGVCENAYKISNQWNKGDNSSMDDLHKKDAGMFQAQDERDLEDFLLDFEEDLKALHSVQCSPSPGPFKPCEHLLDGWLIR
The experiment is described as follows: ELISA of the ternary complex: R-spondin 4 preincubated with LGR5-Fc, co-receptor-Fc coated. A general note: In an ELISA, binding on a coated surface is turned into a signal by an enzyme label.

Experiment [2] deals with T1, purified recombinant LGR5 …. The experiment is described as follows: ELISA of the ternary complex: R-spondin 2 preincubated with LGR5-Fc, co-receptor-Fc coated.
Procedure: (§1) RNF43-Fc, ZNRF3-Fc, and LRP6-Fc were coated on a 96-well high binding plate at 4 μg/mL in 1×PBS. The plate was incubated overnight at 4° C. and blocked with PBS+1% BSA. […] Triplicate wells were used for each condition was tested in triplicate. […] 1:10,000 dilution of anti-mouse IgG HRP (JIR) was used for detection. […] Data analysis was done using GraphPad Prism 6 program.
The target is the same in experiment [3]. The experiment is described as follows: ELISA of the ternary complex: R-spondin 1 preincubated with LGR5-Fc, co-receptor-Fc coated.
Procedure: as §1
For experiment [4] the target is unchanged. The experiment is described as follows: ELISA of the ternary complex: R-spondin 3 preincubated with LGR5-Fc, co-receptor-Fc coated.
Procedure: as §1

B1: human R-spondin 4 (ligand, UniProt Q2I0M5 20-234, looked up)
chain: LNRRKKQVGTGLGGNCTGCIICSEENGCSTCQQRLFLFIRREGIRQYGKCLHDCPPGYFGIRGQEVNRCKKCGATCESCFSQDFCIRCKRQFYLYKGKCLPTCPPGTLAHQNTRECQGECELGPWGGWSPCTHNGKTCGSAWGLESRVREAGRAGHEEAATCQVLSESRKCPIQRPCPGERSPGQKKGRKDRRPRKDRKLDRRLDVRPRQPGLQP
notes: mature; Bought; printed as 'full length constructs expressed in mammalian cells'; also called RSPO4; R-spo4
As to B1, the binding result in experiment [1] was “binds”.

B2: human R-spondin 2 (ligand, UniProt Q6UXX9 22-243, looked up)
chain: QGNRWRRSKRASYVSNPICKGCLSCSKDNGCSRCQQKLFFFLRREGMRQYGECLHSCPSGYYGHRAPDMNRCARCRIENCDSCFSKDFCTKCKVGFYLHRGRCFDECPDGFAPLEETMECVEGCEVGHWSEWGTCSRNNRTCGFKWGLETRTRQIVKKPVKDTILCPTIAESRRCKMTMRHCPGGKRTPKAKEKRNKKKKRKLIERAQEQHSVFLATDRANQ
notes: mature; Bought; printed as 'full length constructs expressed in mammalian cells'; also called RSPO2; R-spo2
For B2, in experiment [2], the binding result is on record as “binds”.

B3: human R-spondin 1 (ligand, UniProt Q2MKA7 21-263, looked up)
chain: SRGIKGKRQRRISAEGSQACAKGCELCSEVNGCLKCSPKLFILLERNDIRQVGVCLPSCPPGYFDARNPDMNKCIKCKIEHCEACFSHNFCTKCKEGLYLHKGRCYPACPEGSSAANGTMECSSPAQCEMSEWSPWGPCSKKQQLCGFRRGSEERTRRVLHAPVGDHAACSDTKETRRCTVRRVPCPEGQKRRKGGQGRRENANRNLARKESKEAGAGSRRRKGQQQQQQQGTVGPLTSAGPA
notes: mature; Bought; printed as 'full length constructs expressed in mammalian cells'; also called RSPO1; R-spo1
B3: the binding result in experiment [3] is “binds”.

B4: human R-spondin 3 (ligand, UniProt Q9BXY4 22-272, looked up)
chain: QNASRGRRQRRMHPNVSQGCQGGCATCSDYNGCLSCKPRLFFALERIGMKQIGVCLSSCPSGYYGTRYPDINKCTKCKADCDTCFNKNFCTKCKSGFYLHLGKCLDNCPEGLEANNHTMECVSIVHCEVSEWNPWSPCTKKGKTCGFKRGTETRVREIIQHPSAKGNLCPPTNETRKCTVQRKKCQKGERGKKGRERKRKKPNKGESKEAIPDSKSLESSKEIPEQRENKQQQKKRKVQDKQKSVSVSTVH
notes: mature; Bought; printed as 'full length constructs expressed in mammalian cells'; also called RSPO3; R-spo3
Turning to B4, the binding result in experiment [4] is on record as “binds”.

(Values after patent US20190100600A1 (BIONOMICS, published 2019).)
